Measurements: patent publication US20060121465A1, “Sgk and nedd used as diagnostic and therapeutic targets” (priority 2002, published 2006)

T1: Sglt1 (Homo sapiens, UniProt P13866)
T1 construct: expressed in transfected cells; host or cells: Xenopus laevis oocytes injected with in vitro synthesized cRNA
T1 sequence (P13866 1-664): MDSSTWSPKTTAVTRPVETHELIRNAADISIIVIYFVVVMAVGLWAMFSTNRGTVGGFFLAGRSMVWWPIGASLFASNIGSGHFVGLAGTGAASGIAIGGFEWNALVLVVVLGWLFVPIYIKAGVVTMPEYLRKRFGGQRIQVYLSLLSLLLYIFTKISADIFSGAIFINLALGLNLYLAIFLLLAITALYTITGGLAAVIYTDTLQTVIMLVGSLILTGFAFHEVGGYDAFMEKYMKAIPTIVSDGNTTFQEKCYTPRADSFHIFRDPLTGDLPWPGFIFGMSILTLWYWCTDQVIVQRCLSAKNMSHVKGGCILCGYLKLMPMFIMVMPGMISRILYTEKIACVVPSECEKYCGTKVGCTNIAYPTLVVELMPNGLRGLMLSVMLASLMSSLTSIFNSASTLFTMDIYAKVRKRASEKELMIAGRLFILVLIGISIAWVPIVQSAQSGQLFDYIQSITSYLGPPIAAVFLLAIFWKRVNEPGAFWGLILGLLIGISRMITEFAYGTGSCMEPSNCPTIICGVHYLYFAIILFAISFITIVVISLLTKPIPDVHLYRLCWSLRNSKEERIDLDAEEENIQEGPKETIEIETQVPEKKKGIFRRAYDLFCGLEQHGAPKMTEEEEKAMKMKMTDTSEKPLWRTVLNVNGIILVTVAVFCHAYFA


Molecular target: T1, Sglt1
Assay: Two-electrode voltage clamp of glucose-induced currents in Xenopus laevis oocytes expressing Sglt1
Format: cell-based
Details: for stimulation of glucose transport by additional coexpression: further series of experiments (FIG. 5); for effect on currents induced by glucose (in words): oocytes expressing Sglt1
From the text: cRNAs encoding wild-type Sgk1 [Waldegger S, Barth P, Raber G, Lang F: Cloning and characterization of a putative human serine/threonine protein kinase transcriptionally modified during anisotonic and isotonic alterations of cell volume. […] Biochem J. 1999; 339: 319-28], wild-type Sgk3 and PKB [Kobayashi T, Deak M, Morrice N, Cohen P. Characterization of the structure and regulation of two novel isoforms of serum- and glucocorticoid-induced protein kinase. Biochem J. 1999; 334: 189-97], consitutively active ^T308D,S473DPKB [Alessi D R, Cohen P. Mechanism of activation and function of protein kinase B. Curr. Opin Genet Dev. 1998; 8: 55-62], wild-type Nedd4-2 [Debonneville C, Flores S Y, Kamynina E, Plant P J, Tauxe C, Thomas M A, Munster C, Chraibi A, Pratt J H, Horisberger J D, Pearce D, Loffing J, Staub O. Phosphorylation of Nedd4-2 by Sgk1 regulates epithelial Na(+) channel cell surface expression. EMBO J. 2001; 20: 7052-7059] and wild-type Sglt1 [Hediger M A, Coady M J, Ikeda T S, Wright E M. Expression cloning and cDNA sequencing of the Na^+/glucose co-transporter. Nature. 1987; 330: 379-381] were synthesized in vitro [Wagner C A, Friedrich B, Setiawan I, Lang F, Bröer S: The use of Xenopus laevis oocytes for the functional characterization of heterologously expressed membrane proteins. Cell Physiol Biochem 2000; 10: 1-12]. Dissection of the Xenopus laevis ovaries, and collection and treatment of the oocytes, have already been described in detail [Wagner C A, Friedrich B, Setiawan I, Lang F, Broer S: The use of Xenopus laevis oocytes for the functional characterization of heterologously expressed membrane proteins. Cell Physiol Biochem 2000; 10: 1-12]. The oocytes were injected with 5 ng of human sglt1, 7.5 ng of human sgk1, ^K127Nsgk1, ^S422Dsgk1, sgk3, PKB or ^T308D,S473DPKB, and/or with 5 ng of Xenopus nedd4-2. Control oocytes were injected with water. Electrophysiological experiments were carried out at room temperature for 3 days after the respective cRNAs had been injected. The currents which were induced by the extracellular administration of 20 mM or 5 mM glucose were measured using a two-electrode voltage clamp [Wagner C A, Friedrich B, Setiawan I, Lang F, Broer S: The use of Xenopus laevis oocytes for the functional characterization of heterologously expressed membrane proteins. Cell Physiol Biochem 2000; 10: 1-12] and taken as a measure of the glucose transport. The data were filtered at 10 Hz and analyzed using a MacLab Digital to Analog Converter and corresponding software (AD Instruments, Castle Hill, Australia). The control bath solution (ND 96) contained 96 mM NaCl, 2 mM KCl, 1.8 mM CaCl2, 1 mM MgCl2 and 5 mM HEPES, pH 7.4. All the substances were used at the stated concentrations. The final solutions were titrated with HCl or NaOH to the stated pH or pH 7.4. The flow rate of the superfusion solution was 20 ml/min and achieved complete change of solution within 10 s.
For the calculations, the data were quoted as arithmetic means±SEM. n is the number of oocytes investigated. All the experiments were carried out in at least three different groups of oocytes. Qualitatively similar data were obtained in all the repeats. The results were tested for significant differences using Student's t test. Only results giving P<0.05 were made use of as being statistically significant.

[1] = coexpressed with Sglt1 and Nedd4-2
[2] = further series of experiments (FIG. 5, procedure as in FIG. 4), coexpressed with Sglt1
[3] = 20 mM glucose, coexpressed with Sglt1, increase vs oocytes expressing Sglt1 on its own
[4] = 20 mM glucose, coexpressed with Sglt1 and Nedd4-2
[5] = 5 mM glucose, coexpressed with Sglt1 and Nedd4-2
[6] = 5 mM glucose, coexpressed with Sglt1 (FIG. 4)

Row | Molecule | stimulation of glucose transport by additional coexpression [1] | glucose-induced current increased by coexpression [2] | glucose-induced current increased by coexpression [3] | glucose-induced current higher than in oocytes expressing Sglt1 on its own [4] | effect on currents induced by glucose (in words) (20 mM glucose, figure legends) | other results
1 | PKB: wild-type protein kinase B, expressed from injected cRNA | 107±20% | 101±18% | – | – | – | –
2 | ^T308D,S473DPKB: constitutively active protein kinase B mutant, expressed from injected cRNA | – | – | 117.4±15.8% | 106.5±18.2% | stimulated the currents and reversed the effect of Nedd4-2 | –
3 | Sgk3: wild-type Sgk isoform 3, expressed from injected cRNA (protein, UniProt Q96BR1 1-496, looked up) Serine/threonine-protein …: MQRDHTMDYKESCPSVSIPSSDEHREKKKRFTVYKVLVSVGRSEWFVFRRYAEFDKLYNTLKKQFPAMALKIPAKRIFGDNFDPDFIKQRRAGLNEFIQNLVRYPELYNHPDVRAFLQMDSPKHQSDPSEDEDERSSQKLHSTSQNINLGPSGNPHAKPTDFDFLKVIGKGSFGKVLLAKRKLDGKFYAVKVLQKKIVLNRKEQKHIMAERNVLLKNVKHPFLVGLHYSFQTTEKLYFVLDFVNGGELFFHLQRERSFPEHRARFYAAEIASALGYLHSIKIVYRDLKPENILLDSVGHVVLTDFGLCKEGIAISDTTTTFCGTPEYLAPEVIRKQPYDNTVDWWCLGAVLYEMLYGLPPFYCRDVAEMYDNILHKPLSLRPGVSLTAWSILEELLEKDRQNRLGAKEDFLEIQNHPFFESLSWADLVQKKIPPPFNPNVAGPDDIRNFDTAFTEETVPYSVCVSSDYSIVNASVLEADDAFVGFSYAPPSEDLFL | 114±26% | 117±16% | 123.6±15.0% | 112.4±19.4% | stimulated the currents and reversed the effect of Nedd4-2 | –
4 | Sgk1: wild-type serum- and glucocorticoid-dependent kinase 1, expressed from injected human sgk1 cRNA (protein, UniProt O00141 1-431, looked up) Serine/threonine-protein …: MTVKTEAAKGTLTYSRMRGMVAILIAFMKQRRMGLNDFIQKIANNSYACKHPEVQSILKISQPQEPELMNANPSPPPSPSQQINLGPSSNPHAKPSDFHFLKVIGKGSFGKVLLARHKAEEVFYAVKVLQKKAILKKKEEKHIMSERNVLLKNVKHPFLVGLHFSFQTADKLYFVLDYINGGELFYHLQRERCFLEPRARFYAAEIASALGYLHSLNIVYRDLKPENILLDSQGHIVLTDFGLCKENIEHNSTTSTFCGTPEYLAPEVLHKQPYDRTVDWWCLGAVLYEMLYGLPPFYSRNTAEMYDNILNKPLQLKPNITNSARHLLEGLLQKDRTKRLGAKDDFMEIKSHVFFSLINWDDLINKKITPPFNPNVSGPNDLRHFDPEFTEEPVPNSIGKSPDSVLVTASVKEAAEAFLGFSYAPPTDSFL | – | – | 81.3±19.0% | 34.8±11.8% | stimulated the currents and reversed the effect of Nedd4-2 | glucose-induced current more than in oocytes injected with Sglt1 and Nedd4-2 mRNA [5]: 126±23%; glucose-induced current more than in oocytes only injected with Sglt1 [5]: 61±21%; glucose-induced current (5 mM glucose, coexpressed with Sglt1 and Nedd4-2 (FIG. 4)): 60.5±9.9 nA
5 | ^K127NSgk1: inactive Sgk1 mutant, expressed from injected cRNA (protein, UniProt O00141 1-431, looked up, variant K127N) Serine/threonine-protein …: MTVKTEAAKGTLTYSRMRGMVAILIAFMKQRRMGLNDFIQKIANNSYACKHPEVQSILKISQPQEPELMNANPSPPPSPSQQINLGPSSNPHAKPSDFHFLKVIGKGSFGKVLLARHKAEEVFYAVNVLQKKAILKKKEEKHIMSERNVLLKNVKHPFLVGLHFSFQTADKLYFVLDYINGGELFYHLQRERCFLEPRARFYAAEIASALGYLHSLNIVYRDLKPENILLDSQGHIVLTDFGLCKENIEHNSTTSTFCGTPEYLAPEVLHKQPYDRTVDWWCLGAVLYEMLYGLPPFYSRNTAEMYDNILNKPLQLKPNITNSARHLLEGLLQKDRTKRLGAKDDFMEIKSHVFFSLINWDDLINKKITPPFNPNVSGPNDLRHFDPEFTEEPVPNSIGKSPDSVLVTASVKEAAEAFLGFSYAPPTDSFL | – | – | – | – | – | change of substrate-induced current (20 mM glucose, coexpressed with Sglt1, signed change vs Sglt1 alone): −2.0±5.3%; glucose-induced current lower than in oocytes expressing Sglt1 on its own [4]: 54.9±9.7%
6 | ^S422DSgk1: constitutively active Sgk1 mutant (serine 422 to aspartate), expressed from injected cRNA (protein, UniProt O00141 1-431, looked up, variant S422D) Serine/threonine-protein …: MTVKTEAAKGTLTYSRMRGMVAILIAFMKQRRMGLNDFIQKIANNSYACKHPEVQSILKISQPQEPELMNANPSPPPSPSQQINLGPSSNPHAKPSDFHFLKVIGKGSFGKVLLARHKAEEVFYAVKVLQKKAILKKKEEKHIMSERNVLLKNVKHPFLVGLHFSFQTADKLYFVLDYINGGELFYHLQRERCFLEPRARFYAAEIASALGYLHSLNIVYRDLKPENILLDSQGHIVLTDFGLCKENIEHNSTTSTFCGTPEYLAPEVLHKQPYDRTVDWWCLGAVLYEMLYGLPPFYSRNTAEMYDNILNKPLQLKPNITNSARHLLEGLLQKDRTKRLGAKDDFMEIKSHVFFSLINWDDLINKKITPPFNPNVSGPNDLRHFDPEFTEEPVPNSIGKSPDSVLVTASVKEAAEAFLGFDYAPPTDSFL | 48±11% | 55±12% | 72.4±9.1% | 59.2±19.8% | stimulated the currents and reversed the effect of Nedd4-2 | glucose-induced current (Iglc) [6]: 65.4±10.6 nA; increase of Iglc by coexpression [6]: 77±23%; effect on currents induced by glucose (in words) (5 mmol glucose, FIG. 4 legend): significantly increased
